B1: SSE-7: synthetic super-enhancer ID4310_ID4428_ID0785_ID3836, SEQ ID NO: 70 (nucleic acid)
DNA: TTGTCCTGCCTTTGAGAACACTGGAAGGGCACTGAAGGCTGACCAGCATGCACCTCACCCCACCTCCTCTCTGTCTCATCCTCAGCCATCTAAGCGGGAGACTCATCAGGCTTAAATTCTCATTCTTATCCAAGATTCTTCTGCTTCAAATGAGTCTAAATGGAGATCCTCCCATAAAGGGAGTTCTGTTTGGGCTTCCCTTGGAAGTCCATTGAAAGCGTTTCACATTTCAATGCTTCTTTACATTCTCCTCTAGAATGAATCTGGAAGGGCCATTTCATTCCAGCCCTATCAGATTTACTACTTCCTCCTGTAAGAATGAACTGGGCCCAGCTGGGCATTTGCATCAAAGTGCCTCACCAGAGTTCCCAGCTGCTCTGGCAGAGTGCCCAGGCTTGCCCCAGAGCCCAAACAGAATGCTCTTTGAGATGCCTCTGGTTTTCATACCCTTCCAGGGGAGCAGTTTCCTGGCTGTGTCGTCAGATACTGTGGTTTACGCTGTTCCGGAGTCTGGAGGTCTGTGTGCCTTTGATCTCTTTCCCAACTAATTTGCACAGCTGCTGTGGAGGCCCTCATGAATGACCTCTTTCTTTCCTTTCT
B2: SSE-3: synthetic super-enhancer ID0876_ID2339_ID1737_ID0663, SEQ ID NO: 66 (nucleic acid)
DNA: GAGCAGGCAGTCATTTGGTTCCCTTCTCTGAATGCATTGGCTCTGATCCACGGCGCCTCAGGAAGTGAAAGGGAGCAGGCAGTGAGGCCAAGCCATGAATGTTGGGCCCTTTTCTTAGAAAACAAAGGGTTCACTTTAGGCTAGGAGGAAACATCCGGGGGTCGGCGGAACTGAGTCTCCTTTGTGGAGCCCCTCATTTGCATGATAAACCCCGGGGACAAAGTGTGTTCTTGTTACTTGGACTGTTTCTTGGAAACTGCTGCTACCTGGAGCGAGTGAACACAGGGCAAGTATTCTCGCCCACAGCAACGTGTCATTGACAACGTTTTTGGCAGATGCAGCTCTTTCTGAACAGTAAGTCATTGTTGAGTGACATGAATAGGACGAGAGCTACAGAAAATGAAGGTTTCAAAAGATTGTCTAAAACAAAAGTCCTTTCAGTCCCGTATTCAGAGTTATAAATTCCGATTAGCCAAGGAAGCTCTGAGTCTAAATACCAGCAAAGCTCAGCCCCTGCAAGTGGGGACGAATTATTTGAAAGGTCATCCTAGAGACACTGAACAAAGGGCCTCTAGCAGCT
B3: SSE-2: synthetic super-enhancer ID0109_ID4328_ID0876_ID2339, SEQ ID NO: 65 (nucleic acid)
DNA: GAAATTGGATCCTGAGGAGAATGTCACCACCTCTTTGACAATAACTAGCTTTCAGAGCTGAACACAGTGAATCTGGATACTGTGTATATGTTTAAATGAGTTAGGAAATGACATCACATTATTTATTTCTTCTTTTGTGACTTAGTAAATTGACTTGGCCTACAATCTATTCTCCATAGTCATCAGAGTTTCTTTAAAGGCACGGTTCAGACAATGGCACCCTCTGTTCCAAACCCTCCAGGGCTTCCTATTTCACTTAGCATAAAAACCAAAGTCCTCACAATGACCGACAAGTCTTCACACAATGTGCCCCTTCATTGGAGCAGGCAGTCATTTGGTTCCCTTCTCTGAATGCATTGGCTCTGATCCACGGCGCCTCAGGAAGTGAAAGGGAGCAGGCAGTGAGGCCAAGCCATGAATGTTGGGCCCTTTTCTTAGAAAACAAAGGGTTCACTTTAGGCTAGGAGGAAACATCCGGGGGTCGGCGGAACTGAGTCTCCTTTGTGGAGCCCCTCATTTGCATGATAAACCCCGGGGACAAAGTGTGTTCTTGTTACTTGGACTGTTTCTTGGAAACTGCTGCTACCTGGAGCGAGTGAACACAGGGCAAGTATTCTCGCCCACAGCAACGTGTCATTGA
B4: SSE-5: synthetic super-enhancer ID2706_ID3547_ID3548_ID3146, SEQ ID NO: 68 (nucleic acid)
DNA: CCAATGCCAAAGCAGTTTACATTTTACAGATGCCATGGCAACCGTCAGGAAGTTACCCTGTATGGTCTAAGAGGGGGAGGAACCCTCAGTTCCGGGAATTGCCCGCCCCTTTCCCGGAAACTCATGAATAATCCACCCCGTTCCCCCTTAACAAAAGCCACCTCCTCCCTCCTGAAAGGCACCATTGGTCACCAAAACAAGTCCCCTTTGTCCTCCACCGCAGCTGGAGCCTGGGCCTTCCATCTCCTGGGGGCCAATAAAACCCCAGATCAGCCAATCCTCCCTCCCTGGCTCTGTCATCCAAACACTCCCCTGCAACAGATGTACACACAGAGCCCATTGTTTTCTCTAGAAATGTAAACTGCACGTCACAGTTACTCCATACACACCACAAACAGACTCCCTTTGTTCTCAGGATATGTGTTGACACAAGAATATGTCATCCTCTCAGCTCCAGACTGAAAGAGATGGGTGTGTGGGAGTGGGGGAAGCTGAGCTCCAGGCAGACAGCACAGAGCCGCCTTGTCCAACCCAGCCAGGTGCCATGGCAACCAACAAAGGCCCCATTGTCCCGTGTCTGCTGGGCCTTCCTGAGGCTCTGGGGTCAGAGTCCCGGTT
B5: SSE-1: synthetic super-enhancer ID1101_ID2904_ID0109_ID4328, SEQ ID NO: 64 (nucleic acid)
DNA: GTGAGTGTGACTCACATGCTGGCATCAGAGCCCCTCTTAGAGCTTAGAACACTGGGCCTCTGTCAGGCAAAGAAAAGGAGTCCCTATGAATAGCCATCTCCACAAATAGCAGTTACTGTCACTTCTTAAAAGACACAAGCATGGCTGGAGACCGGCACTGTGCATGTTCTTGGGAAAAAGTGGTATTTAATGAAGGCGCTTTGAGCTGAATCAAAGAGCCTCATTCTTCTGAAAGTCCTTCTTCCTAGTCTCTGCATCCGGCTCCTATCAAAGGAAATCCACAGCTTTGGCTTTTCGTTGCTGTTGTCATGGAAATCGTTGAAATTGGATCCTGAGGAGAATGTCACCACCTCTTTGACAATAACTAGCTTTCAGAGCTGAACACAGTGAATCTGGATACTGTGTATATGTTTAAATGAGTTAGGAAATGACATCACATTATTTATTTCTTCTTTTGTGACTTAGTAAATTGACTTGGCCTACAATCTATTCTCCATAGTCATCAGAGTTTCTTTAAAGGCACGGTTCAGACAATGGCACCCTCTGTTCCAAACCCTCCAGGGCTTCCTATTTCACTTAGCATAAAAACCAAAGTCCTCACAATGACCGACAAGTCTTCACACAATGTGCCCCTTCATTG

How the values were obtained:
Assay type in all cases: cell-based, human
GSC7 cells [1] = experiment: Flow cytometry of mNGreen reporter in GSC7
Protocol: (§1) Cells were seeded at the required density. The following day the transfection was carried out. For this the Plus reagent and Lipofectamine LTX (Life Technologies, 15338030) were each diluted in half the volume of Opti-MEM I Reduced-Serum Medium (further referred to as Optimem) (Life Technologies, 31985062). Following this step, the Plus reagent/Optimem premix was added to all DNA samples followed by the Lipofectamine LTX/Optimem premix. The transfection mix was incubated for 5 min at room temperature and then carefully dropped on the cells. Generally, no media change was carried out. Cells were analysed two days following transfection.
For flow cytometry, cells were detached, pelleted and resuspended in an appropriate volume of flow cytometry buffer (1% BSA in PBS, v/v). Cells were stained with Draq7 (Abcam, ab109202, f.c. 0.1 μM) as a live/dead stain and analysed using the BD LSRFortessa cell analyser (4 lasers, BD Bioscience). Analysis of flow cytometry data was carried out in the FlowJo Analysis software (FlowJo, version 10.6.2).

[2] = test system: patient-derived glioblastoma cell lines; experiment: SSE-7 mCherry expression across patient-derived glioblastoma cell lines
Text: The experiment described in Example 8 was repeated in five patient-derived glioblastoma cell lines (E17, E21, E28, E31, E34).

GSC7 cells [3] = experiment: Nano-Glo Dual-Luciferase Reporter (Nanoglo DLR) enhancer assay in GSC7
Text: We chose an arrayed library format, with 160 bp enhancer fragments individually cloned into separate plasmids and arrayed in 96 well plates. These 160 bp were synthesized as a single pool of oligos, then randomly cloned into the plasmid and isolated. 20 bp×2 were needed for PCR amplification of the pool and so a library of 200 bp fragments was synthesized (Twist Biosciences). To meet our oligo synthesis strategy, ChIP-seq peaks expressed by GSCs were merged into a single oligo. This oligonucleotide pool was PCR-amplified (using limited cycles to reduce bias and ‘jackpot’ products meaning products which are easier to amplify will overtake the oligonucleotide pool) and cloned into the expression vector by an efficient Golden Gate reaction. 4579 individual plasmids were then randomly picked, isolated and plated as an arrayed plasmid DNA library on 96 well plates (×48). The bacterial colony picking and production of plasmid minipreps were supported by the Edinburgh Genome Foundry (S. Rosser). This library was then screened using the optimised Nanoglo DLR assay (Nano-Glo Dual-Luciferase Reporter Assay, Promega) in 384 well format. Each plate was transiently transfected together with PGK-FFLuc in a 1:10 ratio into GSC7 cells. 2 days later a Nanoglo DLR assay was performed and assayed on a plate reader.
Cells were seeded in 384 well plates using a multidrop and transfected the following day using the CyBio Felix. Two days later the experiment was terminated with a Nanoglo DLR assay and all hits with a fold change to mCMV greater than 10 were Sanger sequenced and mapped back to the genome.
as §1
This assay consists of two steps. […] First, the Firefly Luciferase activity is measured which allows to normalise to transfection efficiency. In a second step, the activity of Nanoluc is determined which is the readout of the plasmid of interest. […] 20 μl cell lysate in 96 well format or 25 μl cell lysate in 384 well format was then transferred into the corresponding opaque white plate and luminescence was measured at for 0.1 s per well using the Ensight Multimode Plate Reader. […] Nanoluc activity was measured for 0.1 s per well, again using Ensight Multimode Plate Reader. […]

Row | Molecule | activity compared with full CMV by flow cytometry (GSC7 cells [1]) | mCherry expression ([2]; E21, E31 and E34) | mCherry expression ([2]; GSC7, E17 and E28) | activity compared with full CMV by Nanoglo DLR assay (GSC7 cells [3])
1 | B1 | higher than CMV | lower frequency of expression | highly expressed and comparable to full-length CMV | 
2 | B2 | higher than CMV |  |  | higher than CMV
3 | B3 | higher than CMV |  |  | higher than CMV
4 | B4 | higher than CMV |  |  | higher than CMV
5 | B5 | higher than CMV |  |  | higher than CMV
